Experimental data: paper PMC3070698

How the values were obtained:
[1] = target: T1, TLR9 tagged at the C terminus with enhanced green fluorescent protein, Q9NR96; experiment: two-dimensional photon counting histogram (2dPCH); live HEK 293 cells expressing TLR9-GFP, incubated with Cy5-labelled CpG or non-CpG DNA; single-component fit; brightness in the green and red channels; bin size 50 µs; conditions: remark: other sources report otherwise
T1 chain: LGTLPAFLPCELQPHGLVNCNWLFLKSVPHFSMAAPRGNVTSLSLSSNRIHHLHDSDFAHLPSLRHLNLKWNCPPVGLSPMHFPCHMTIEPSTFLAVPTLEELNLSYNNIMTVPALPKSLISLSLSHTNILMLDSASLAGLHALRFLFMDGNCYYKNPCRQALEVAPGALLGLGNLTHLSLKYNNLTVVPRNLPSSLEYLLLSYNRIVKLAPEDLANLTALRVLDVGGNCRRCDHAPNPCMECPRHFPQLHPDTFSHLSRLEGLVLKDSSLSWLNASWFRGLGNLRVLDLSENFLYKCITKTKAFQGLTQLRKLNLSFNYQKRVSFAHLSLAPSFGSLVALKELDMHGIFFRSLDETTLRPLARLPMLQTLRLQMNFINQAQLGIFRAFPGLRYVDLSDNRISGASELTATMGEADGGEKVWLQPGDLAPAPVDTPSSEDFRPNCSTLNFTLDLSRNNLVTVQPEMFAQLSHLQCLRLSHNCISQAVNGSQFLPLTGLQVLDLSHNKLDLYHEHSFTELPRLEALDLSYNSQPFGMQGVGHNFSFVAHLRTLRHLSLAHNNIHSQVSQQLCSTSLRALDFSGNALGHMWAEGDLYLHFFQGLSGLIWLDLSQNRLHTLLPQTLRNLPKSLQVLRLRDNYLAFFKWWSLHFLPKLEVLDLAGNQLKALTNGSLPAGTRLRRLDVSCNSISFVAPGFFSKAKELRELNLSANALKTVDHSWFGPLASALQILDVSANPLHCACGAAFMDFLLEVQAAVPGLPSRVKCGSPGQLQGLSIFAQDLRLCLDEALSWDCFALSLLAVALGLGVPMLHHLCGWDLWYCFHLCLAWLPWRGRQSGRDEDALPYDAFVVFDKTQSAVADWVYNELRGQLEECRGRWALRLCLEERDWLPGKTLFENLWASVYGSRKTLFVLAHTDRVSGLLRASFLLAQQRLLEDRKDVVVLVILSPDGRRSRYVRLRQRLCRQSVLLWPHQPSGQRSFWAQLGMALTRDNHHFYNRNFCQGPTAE

[2] = target: T1, TLR9 tagged at the C terminus with …; experiment: photon counting histogram (PCH); live HEK 293 cells expressing TLR9-GFP; molecular brightness compared with GFP monomer; two-component global fit with the brightness of GFP monomer and GFP dimer fixed; bin size 50 µs; without DNA, with CpG DNA or with non-CpG DNA; monomer to dimer; conditions: remark: other sources report otherwise

stoichiometry N [1]: 2
percent of TLR9 as dimers (no DNA) [2]: 79.1%
percent of TLR9 as dimers (with CpG DNA) [2]: 82.6%
percent of TLR9 as dimers (with non-CpG DNA) [2]: 82.6%
stoichiometry N [2]: 2
B1: TLR9 tagged at the C terminus with enhanced green fluorescent protein, Q9NR96 26-1032 (receptor)
chain: T1 chain
